Measured values: the DeepSol protein solubility set

Assay: soluble on expression in E. coli; label from the status in PepcDB or PDB records
In the case of “MEWIKQILAKHMKEDGTLDMEAANKEIDKEFPVNAVPKDQYNNLSSQLAEANKTLKSLEAKTKDNPDVQKELADLKEKADALEKENKDLKINSQVSAALQSAGAKDIDYALFKLGELELDKDGNVKDLESKVKDLKASIPDYFEKKDTLDDKSKKKTENKAGYQPIDNKLPKGKEPNEKDPFEAILSKYE”, the “soluble on expression in E. coli” value is reported as “not soluble”. With “MEYFDMRKMSVNLWRNAAGETREICTFPPAKRDFYWRASIASIAANGEFSLFPGMERIVTLLEGGEMLLESADRFNHTLKPFQPFAFAADQVVKAKLTAGQMSMDFNIMTRLDVCKAKVRIAERTFTTFGSRGGVVFVINGAWQLGDKLLTTDQGACWFDGRHTLRLLQPQGKLLFSEINWLAGHSPDQVQ” the “soluble on expression in E. coli” value was “soluble”. In the case of “MEYKPIRKVVSGNYAAAYAALHARVQVVAAYPITPQTSIIEKIAEFIANGEADIQYIPVESEHSAMAACIGASATGARTFTATSAQGLALMHEMLHWAAGARLPIVMVDVNRAMAPPWSVWDDQTDSLSQRDTGWMQFYAENNQEVYDGVLMAYKVAETVNVPAMVVESAFILSHTYDVVEMIPQELVDEFLPPRKPLYSLANFDEPIAVGALATPNDYYEFRYKLAKAHEEAKKVIKEVGKEFGERFGRDYSQMIETGYIDDADFVFMGMGSLMGTVKEAVDLLRKEGYKVGYAKVRWFRPFPKEELVEIAESVKGIAVLDRNFSFGQEGILFTESKGALYNSSAHPLMKNYIVGLGGRDVTVKDIKAIADDMKKVIESGKVDKEVVWYHLKR”, the “soluble on expression in E. coli” value is reported as “not soluble”. For “MEYQFTHSIHGIVAKCSMEHEVFARWLNTEIIGHTQNLHNILAEIEKCRAAFPNHYECVFEGQEYSLYFDCDEVIVKVNNLAMAIDEVIVEEGLQLYDQESVAFCGLEDFERFLQAYHKFSSTYH”, the “soluble on expression in E. coli” value was “not soluble”. For “MEYRKVGKWGVKISELSLGSWLTFGKQLDLDTATEVVKKAFNSGINFFDTAEAYAGGIAEAMLGKILKNFRREDLVVSTKIFWGGSGPNDLGLSKKHLLEGTWNSLKRLQMDYVDILYCHRPDPNVPMEEVVFAMDYILREGLALYWGTSEWSAKEIEEAHRVCKELGVMPPIVEQPQYNMFVRERVEKEYAPLYEKYGMGLTTYSPLASGLLSGKYNNGIPEGSRLATFPQVRKWLEEGGLLNEKTFKKLRKLQNIADQLGASLPQLAIAWILKNKNVSSVILGVSRPEQLEENLKAVEIKEKLTEDVMEEIEKILNE”, the “soluble on expression in E. coli” value was “soluble”. For “MFARLANPAHFKPLTGSHITRAAKRLYHPKVIDHYTNPRNVGSMDKSLANVGTGIVGAPACGDVIKLQIQVNDKSGIIENVKFKTFGCGSAIASSSYMTELVRGMSLDEAVKIKNTEIAKELSLPPVKLHCSMLAEDAIKAAIKDYKTKRNPSVLH”, the “soluble on expression in E. coli” value was “not soluble”. With “MFAVRTKFVTKTEVVLRTVYTALEKGLAVIGPTQVAEELGVSKSTAQKMLNELSKAGYGVYVPKKGLVLNERGKMEARAAVRMHRLIECLLADLGVEDFCKEAEKIGMVAGSSLVDALEARYGDREFCPCGKRIPEVKK” the “soluble on expression in E. coli” value was “not soluble”. For “MFCGRFANFIMRDVINFIKKYNNFVIIGHKDPDFDCIGSSLALSSFLSRIGKNSILLNEGPFIRKEIVPFKDKFLSEWPNIEISEYSVIILDCSILDRIGDEFIFYVKNMPTLVIDHHMSGEKLECEGYIDPFAPSTTFLIEKLIREFGHDLTKEEAWYILVGFCTDTGFFKFISRSDPEPFEMVARLVSKGISLKEVYSYIETTKSLKSIETLKLMLNSLESYWNGKVLFTFLSSSSSGKDGGVSGVNELFYMILSNVENNEILGILKEMEDGSIIVGLRSKDSFDVGKLAEDFGGGGHKNASGFRIKQGSLEIVKNRMLAYIKDNIYLLEHHHHHH”, the “soluble on expression in E. coli” value was “not soluble”. For “MFDILMYLFENYVHSEVELLVDEDELTKELTRAGFHQSEILKALTWLERLAELQEGDKPYLCNHDQHSFRIYTKDEMEKLDVECRGFLLFLEQVKVLNVETREMVIDRVMELDEPALILEDLKWVILMVLFNAPGHESAYEQMEDLIFEQPEEGRLHS”, the “soluble on expression in E. coli” value was “soluble”. For “MFEEGSEDEVTLMGCTQDEVKPKVGLSQKKWFPKEDIVLVRAWLNTNKDHVIGNDQQCQSFLKQIASYVAISPQLDYLPKREHAKCKQRWSKVNKSVTKFVGCYKTATTHKTSGQSEDDVMKLAYEIYYNDTKKKFNLEHTWRKLRYDQKWCEAATIKGNKNAKRKCVDGY”, the “soluble on expression in E. coli” value was “soluble”. In the case of “MFEGKLVRLRAYRKEDIEKALEFANDPEVKKCLVPGIPFPWRKEDEEKWYQSLNPFSTDSYSFAIEKLSDGEYIGGCSINKIDWKNSVAEVGIFLGRPYWSQGYGTDAMRVLVRFIFNEMNMNKIKLHVFSFNERAKRVYEKIGFKVEGILRQELFREGRYHDVIVMGLLKSEWEDLTETDL”, the “soluble on expression in E. coli” value is reported as “soluble”. With “MFEKGIWLNEPRQWSVTDQRLTVITDPETDFWQQTHYGFCRDTGHFLGVSVKGEFTAQVHVQGDFKTLYDQAGLMVRVDERNWVKTGVEVSDGALMLGSVLTWGQSDWATGVFDDSSSGLWLRVTVAKGVMRIQHSSDGLRWPLLRLAAFPLSERYAVGAMCCSPERGGLKVVFSHFEVMPALGKDLHDLTLEHHHHHH” the “soluble on expression in E. coli” value was “not soluble”. For “MFEWIKTFIAVYETKNFSTAAKQLYISQPTVSLQIKKLEQHFSIKLFYRNGKQSVIPTKEADFLYPKMLSIIESLTTSFAQAAEKENFKEDCIIASSNTVAIYLLPDIMESLVTAFPLINFSIQLMNSNEVVDMVQNNHAHIGLIEKPIETKNLHKEIVYEDQLVLAGDAASKFWLLREKNSGLRFFNELYLNEHSINLPIIELNNNEVLLQLLKNNIGQSIVSRLSISDEIPWQPIDQSFASRKIFIVQTDHHANTSFSEVYNRIVEKIRERQT”, the “soluble on expression in E. coli” value was “not soluble”. With “MFFIGIFGIENKQKEVKQLENIYCKTCSTRTMGTLIKSYEYFHIFFIPIFRWNEKYYVMCKRCNSIYEISKEKGKAIENGEINEVNLEDMTLIQEGQVYGKRAVKKVCPNCGKTVDGDYNYCPYCGSEILEHHHHHH” the “soluble on expression in E. coli” value was “not soluble”. For “MFGNSYGGYLANLCAKIAPWSIDFILDNSSFVNLFGNIFRLIGFGKEIDFTRYHGTYDDTLFKNIFLYLSDKTYWNNNKFSKNYFSNARKIIREPLNKEHLIIQSLYPNPKYILYHSIFDERSPFKNKENFVHILKELNFKVEFFAISQVDNKFIKNLNHGMGLSTKLFFKKHLLQILKEPLQDKICKKEVSYKCDELVYTFKEENHQIILNITN”, the “soluble on expression in E. coli” value was “not soluble”. With “MFIESRELVMKHRIPVAKTERYWKGLEEGKVFKTVCKSCGKEHHPPRAECLCGGEVEWVEITGEGVVEAFTTVHTIPAGFEWHREPYTIAIARFGEVRVMGWAKEVRVGDVVRLKPGKDETGVWKVYFEVVLEHHHHHH” the “soluble on expression in E. coli” value was “soluble”. With “MFIGGAIISFLFLFGYMWKEAHSNRIRHVTLSFPHFPDNGPPLTIFFISDIHRRSVSCRMLETVKGKADLVVIGGDLAEKGVPAARVRENVRRLQTVAPVYFVWGNNDDEVDYDLQSLLEEERVYVLKNKAEVWEHGGVPIALIGVGDVSRKEADIARALEHVPPESFRILACHNPAIIARLEDEQHISLVLSGHTHGGQIRLFSFGLYEKGGLKWHGNTALFTSNGYGTTGVPLRLGAPAETHLIKIVPGKLATEKKCLSKTGKTMLEHHHHHH” the “soluble on expression in E. coli” value was “not soluble”. In the case of “MFIQTEATPNPATLKFLPGKVVLESGTVEFLNASQAQASPLAERLFTIPGVTGVYFGFDFITVTKDDAEWQHLKPAILGSIMEHFMSGRPIMGTAIAAEVSDEEGEFFEEGDETIVATIKELLDTRVRPAVAQDGGDITFRGFRDGTVFLNMKGACSGCPSSTATLKHGVQNLLRHFVPEVREVEAV”, the “soluble on expression in E. coli” value is reported as “not soluble”. With “MFKIGSVLKQIRQELNYHQIDLYSGIMSKSVYIKVEADSRPISVEELSKFSERLGVNFFEILNRAGMNTKSVNETGKEKLLISKIFTNPDLFDKNFQRIEPKRLTSLQYFSIYLGYISIAHHYNIEVPTFNKTITSDLKHLYDKRTTFFGIDCEIVSNLLNVLPYEEVSSIIKPMYPIVDSFGKDYDLTIQTVLKNALTISIMNRNLKEAQYYINQFEHLKTIKNISINGYYDLEINYLKQIYQFLTDKNIDSYLNAVNIINIFKIIGKEDIHRSLVEELTKISAKEKFTPPKEVTMYYENYVAIENNPIPEIKEQS” the “soluble on expression in E. coli” value was “soluble”. In the case of “MFKPELLSPAGTLKNMRYAFAYGADAVYAGQPRYSLRVRNNDFKMENLATGIEEAHALGKKLYVVSNIAPHNAKLKTYIKDMEPVVAMKPDALIMSDPGLIMMVREAFPEQVVHLSVQANAINWASVKFWQTQGIKRVILSRELSLDEIEEIRQRCPDIELEVFVHGALCMAYSGRCLLSGYINKRDPNQGTCTNACRWKYDVHEAQQTDSGDIIATPNAVQIETPTTLGAGAPTEQIFLLQEANRPGEYMPAFEDEHGTYIMNSKDLRAIQHVERLAKMGIDSLKIEGRTKSFYYVARTAQLYRQAIDDAASGKSFDRSLMNQLEGLAHRGYTEGFLRRHVHDEYQNYDYGYSVSDTQQFVGELTGKRNLAGLAEIEVKNKFSVGDSVELMTPQGNISLTIEQLENRKAEAVEAGLGSGHSVYLPVPKEVDLNHGILLRNLPQGQDTRNPHEAG”, the “soluble on expression in E. coli” value is reported as “not soluble”. For “MFNIMLVKFVVIFALILASCRVEADNTSVLPEGFVDAAQRSTHTNNWAVLVDASRFWFNYRHVANVLSIYRSVKRLGIPDSQIILMIADDMACNARNPRPGQVYNNANQHINVYGDDVEVDYRGYEVTVENFVRLLTGRTQNGTARSKKLLSDAGSNVLIYLTGHGGDGFLKFQDSEEITSQELADGIQQMWEKKRYNELFFMVDTCQAASLYEKFTSPNVLAVASSLVGEDSLSHHVDPSIGVYMIDRYTYYALEFLEKVQPFSKRTIGEFLQVCPKRVCISTVGVRKDLYPRDPHKVPITDFFGAIRPTRVSTDRINVTLANEELEHHHHHH”, the “soluble on expression in E. coli” value was “not soluble”. For “MFNVDGECVVFTSGGTESNNWVIEGTIRNAKKVSKLPHIITTNIEHPSILEPLKRREEDGEISVTYVSINPLTGFVTSQSILDALTSDTCLVTIMLANNDTGVLQPVSEIFQAIREKLKTNVPFLHSDVAQAAGKIPVNVRSLSADAVTVVGHKFYGPRSGALIFNPKSKRIPPMLLGGNQESGWRSGTENTPMIVGLGEAAKVYNEGFLNIESILRQNRDYFEELLLKRLRNSHIIHFIGSQRLPNTSSVAFLDYPSHGCDLLEKCQTFNASTGAACHKNECSPILKACGIPFAVASKTVRISFGRSTKIAEIETVVDELVQLCSPS”, the “soluble on expression in E. coli” value was “not soluble”. With “MFPSGHNEKWTRGYQRENSLLHHDDEFRSFQRRTDCPQHFYQQTNGYEHSLFGEKAGFHEASAQNLLMHLASQISPMEFAKLQLELLASQNKQRPHRGAGFGSYLMSPPATVSSSRSTVLCCNPAPPYASHCQSPAASDDFGHHFGSFDSMSAYNFHNNNQQQRREAHVSRDGKSFDQGNIYTAEDVHTVVKNHRNENNQRVVSNKVFVGGISHMMNRKIINKFFGQFGTVFVDWPVKQKPNSRGKSIAIGSYSYLFLVYSDEQSVIKLMSACHRNSQNDFFVSVPGFRDMIQIRPWFIYNGFYILEKARHNRIIDIHRTVFLGGLPRIVTAEEIAQMFSEFGVVLLVTIDIDQDYGYPKGAARVTFERDSAFNRALEKKFLKFDNIDSSKTMIEIKPYVMEDVGCDECGGLWFNPFLSIYDHLKCAKDDHQKEQKMAEIKNFNMWSSRSPFSLNSGDGHDDLITKMDAGFKKNCNLACTYSNRENEKNETEMGARKFLEMVKSFGLEKEKTVTVNGNEYPIGPDLWDKFLPAPKYDVGTEPVRMNPEAKLQQFLRMKRTNVYSNKSAYCKEAPCRQYYCPSCSNKLHSGPNQHTLLPAG” the “soluble on expression in E. coli” value was “soluble”.
